# Test results reported in patent US20040018205A1.
# Non-standard residues stand in square brackets, D forms with d. No end group written: not given here. Abu = CC[C@H](N)C(=O)O
# B1: Y9M-5α-but (peptide)
# peptide: YIAE[Abu]ILGM
# B2: A9E (peptide)
# peptide: AMPIGRIAE
# modifications: not checked
# B3: Y9M-5S (peptide)
# peptide: YIAESILGM
# modifications: not checked
# B4: R9M-5α-but (peptide)
# peptide: RIAE[Abu]ILGM
# B5: R9M-5A (peptide)
# peptide: RIAEAILGM
# modifications: not checked
# B6: R9M-5S (peptide)
# peptide: RIAESILGM
# modifications: not checked
# B7: wildtype R9M peptide (peptide)
# peptide: RIAECILGM
# modifications: not checked
# B8: Y9M-5A (peptide)
# peptide: YIAEAILGM
# modifications: not checked
# B9: Y9I (peptide)
# peptide: YIGRIAECI
# modifications: not checked
# B10: Y9E (peptide)
# peptide: YMPIGRIAE
# modifications: not checked
# B11: P9I (peptide)
# peptide: PIGRIAECI
# modifications: not checked
# B12: Y9M (peptide)
# peptide: YIAECILGM
# modifications: not checked
# Target: soluble HLA-A2.01 molecules
# Assay: competition with 125I-F10V for HLA-A2.01, ratio peptide/125I-F10V 25/1
row,Binder,"percentage inhibition of the binding of 125I-F10V, ratio 25/1 [%]"
1,B1,26
2,B2,57
3,B3,37
4,B4,49
5,B5,72
6,B6,75
7,B7,69
8,B8,87

# Target: HLA-A2.01 molecule at the surface of T2 cells
# Assay: T2 cell HLA-A2.01 stabilization; concentration ratio against the reference peptide for 20% of maximal stabilized molecules
row,Binder,RA
1,B1,0.7
2,B3,1.4
3,B4,2
4,B5,3.2
5,B7,2.9
6,B8,0.9

# Target: soluble HLA-A2.01 molecules
# Assay: competition with 125I-F10V for HLA-A2.01, ratio peptide/125I-F10V 10/1
row,Binder,"percentage inhibition of the binding of 125I-F10V, ratio 10/1 [%]"
1,B1,26
2,B2,47
3,B3,25
4,B4,27
5,B5,59
6,B6,74
7,B7,64
8,B8,79

# Target: HLA-A2.01 molecule at the surface of T2 cells
# Assay: T2 cells loaded overnight; residual surface complexes by indirect immunofluorescence and FACS at 0, 2, 4 and 5 h
row,Binder,DC50 (half-life of the peptide-HLA-A2.1 complex) [h]
1,B9,< 2
2,B10,0
3,B11,0
4,B12,< 2
5,B4,2
6,B5,< 2
7,B7,< 2

# Target: HLA-A2.01 molecule at the surface of T2 cells
# Assay: not given
Binder,DC50 (half-life of the peptide-HLA-A2.1 complex) [h],RA
B6,2,2.2
